# From patent US20130323248A1 (SORRENTO THERAPEUTICS, published 2013)
# B1: anti-DLL-4 antibody G6 (antibody, V domains shown)
# VH: EVQLVESGGSLVQPGGSLRLSCAASGFTFSNGWMTWLRQAPGKGLEWVATIKPDGSDTAYVESVKGRFTISRDNAKNLLYLQMDSLRGDDTAVYFCARDLAYNAFDIWGQGTMVTVSS
# VL: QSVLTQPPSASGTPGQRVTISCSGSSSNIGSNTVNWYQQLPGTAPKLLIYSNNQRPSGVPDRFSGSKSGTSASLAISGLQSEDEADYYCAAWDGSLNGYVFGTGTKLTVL
# notes: Fully human antibody of an IgG class
# B2: anti-DLL-4 antibody C3 (antibody, V domains shown)
# VH: QVQLVQSGSELKKPGASVKVSCKASGYTFTSYYMHWVRQVPGQGLEWMGIINPSGGSTSYAQKFQGRVTMTRDTSTSTVYMELSSLRSEDTAVYYCATDYYDSSGYVDFDYWGQGTLVTVSS
# VL: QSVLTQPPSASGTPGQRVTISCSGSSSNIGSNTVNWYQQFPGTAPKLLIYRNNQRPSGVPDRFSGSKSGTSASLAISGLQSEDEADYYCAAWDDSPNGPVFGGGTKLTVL
# notes: it was detected with anti-human IgG (gamma-chain specific)
# Biological target: T1, human DLL-4 expressed on the surface of CHO-K1 cells (CHO-DLL-4 cells) (human, UniProt Q9NR61 27-685)
# T1 construct: whole, on cells; also called cell surface expressed DLL-4; cellular human DLL-4
# Assay: flow cytometry (HTFC) on CHO-K1 cells stably expressing DLL-4
# Method: Cells stably expressing DLL-4 were incubated with 1 μg/ml of anti-DLL-4 antibodies as indicated. The binding was analyzed by flow cytometry (HTFC, Intellicyt).
# This example illustrates in vitro data for cell binding as part of an initial screen for several disclosed antibodies. CHO-K1 cells stably expressing DLL-4 (CHO-DLL-4 cells) were lifted in enzyme-free Dissociation Buffer and transferred to V-Bottom 96 well-plates (100,000 cells/well). Cells were incubated with anti-DLL-4 Antibodies in FACS buffer (PBS+2% FBS)+NaN₃ on ice for 45 min. After 2 washes in FACS buffer, a 1:1000 dilution of Phycoerythrin conjugated anti-Human IgG (γ-chain specific) was added and incubated for 30 min. Following a final wash, fluorescence intensity was measured on an Intellicyt High Throughput Flow Cytometer (HTFC). Data were analyzed using Graphpad Prism software using non-linear regression fit. Data points are shown as the median fluorescence intensity (MFI) of positively labeled cells +/− Standard Error. EC₅₀ values are reported as the concentration of antibody to achieve 50% of maximal DLL-4 antibodies binding to DLL-4 expressing cells.
row,Binder,binding result
1,B1,binds
2,B2,binds
